Measurements reported in PMC6650976, “Experimental Insight into the Structural and Functional Roles of the ‘Black’ and ‘Gray’ Clusters in Recoverin, a Calcium Binding Protein with Four EF-Hand Motifs” (Molecules, 2019).

Assays:
[1] = target: the molecule itself; test: cross-linking; apo-proteins: 0.02% glutaric aldehyde, 16 h, 20 °C, protein 1 mg/mL, 20 mM Tricine-KOH pH 7.4, 50 mM KCl, 1 mM DTT, 1 mM EDTA; SDS-PAGE, Coomassie, densitometry; self-association
Summary of the method: (§1)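 Metal-free recoverin (human, recombinant, E. coli-expressed, purified, treated by gel filtration), along with its modified forms, was crosslinked with 0.02% glutaric aldehyde at 1.0 mg/mL for 16 h at 20 °C. The buffer was 20 mM Tricine-KOH pH 7.4, 50 mM KCl and 1 mM DTT, plus EDTA, MgCl2/EGTA or CaCl2. The share of each oligomer band was quantified in Quantity One as a percentage from scanned, Coomassie-stained gels, which were 15% resolving SDS-PAGE run at 5 µg/lane.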

[2] = target: the molecule itself; test: cross-linking; Ca2+-loaded proteins: 0.02% glutaric aldehyde, 16 h, 20 °C, protein 1 mg/mL, 20 mM Tricine-KOH pH 7.4, 50 mM KCl, 1 mM DTT, 1 mM CaCl2; SDS-PAGE, Coomassie, densitometry; self-association
Summary of the method: as §1

[3] = target: the molecule itself; test: cross-linking; Mg2+-loaded proteins: 0.02% glutaric aldehyde, 16 h, 20 °C, protein 1 mg/mL, 20 mM Tricine-KOH pH 7.4, 50 mM KCl, 1 mM DTT, 1 mM MgCl2, 1 mM EGTA; SDS-PAGE, Coomassie, densitometry; self-association
Summary of the method: as §1

Protein	Dimer 50 kDa, % [1] [%]	Monomer 20 kDa, % [1] [%]	Dimer 50 kDa, % [2] [%]	Monomer 20 kDa, % [2] [%]	Multimer 100–250 kDa, % [2] [%]	Trimer 70–100 kDa, % [2] [%]	Dimer 50 kDa, % [3] [%]	Monomer 20 kDa, % [3] [%]
recombinant wild type human recoverin (natural protein, UniProt P35243 1-200, looked up, myristoyl group at the N terminus (degree of myristoylation exceeded 89%), recoverin, human, UniProt P35243; cDNA from Y79 retinoblastoma cells, amplified with primers from the start codon to the stop codon, subcloned into pET-15b(+) by NcoI and XhoI; also called rWT; rWT recoverin; source: E. coli pET15b rec/pBB131/BL21(DE3)RILLC+, purified (phenyl-Sepharose, Toyopearl SuperQ-650M)) MGNSKSGALSKEILEELQLNTKFSEEELCSWYQSFLKDCPTGRITQQQFQSIYAKFFPDTDPKAYAQHVFRSFDSNLDGTLDFKEYVIALHMTTAGKTNQKLEWAFSLYDVDGNGTISKNEVLEIVMAIFKMITPEDVKLLPDDENTPEKRAEKIWKYFGKNDDDKLTEKEFIEGTLANKEILRLIQFEPQKVKEKMKNA	33.1 ± 1.1	66.9 ± 1.1	30.9 ± 0.4	15.5 ± 0.6	21.55 ± 0.09	32 ± 1.1	31.55 ± 0.09	68.45 ± 0.09
human recoverin mutant F83A (natural protein, UniProt P35243 1-200, looked up, myristoylated (fraction of non-myristoylated forms did not exceed 16%), recoverin, human, UniProt P35243, N-terminal 'black' cluster mutant; Parent construct as m1; source: E. coli, expressed and purified similarly to the rWT protein (phenyl-Sepharose, Toyopearl SuperQ-650M)) MGNSKSGALSKEILEELQLNTKFSEEELCSWYQSFLKDCPTGRITQQQFQSIYAKFFPDTDPKAYAQHVFRSFDSNLDGTLDAKEYVIALHMTTAGKTNQKLEWAFSLYDVDGNGTISKNEVLEIVMAIFKMITPEDVKLLPDDENTPEKRAEKIWKYFGKNDDDKLTEKEFIEGTLANKEILRLIQFEPQKVKEKMKNA	35.6 ± 0.8	64.4 ± 0.8	28.7 ± 0.8	38.4 ± 1.4	13.2 ± 0.3	19.7 ± 0.4	33.8 ± 1	66.2 ± 1
human recoverin mutant F70A (natural protein, UniProt P35243 1-200, looked up, myristoylated (fraction of non-myristoylated forms did not exceed 16%), recoverin, human, UniProt P35243, N-terminal 'gray' cluster mutant; Parent construct as m1; source: E. coli, expressed and purified similarly to the rWT protein (phenyl-Sepharose, Toyopearl SuperQ-650M)) MGNSKSGALSKEILEELQLNTKFSEEELCSWYQSFLKDCPTGRITQQQFQSIYAKFFPDTDPKAYAQHVARSFDSNLDGTLDFKEYVIALHMTTAGKTNQKLEWAFSLYDVDGNGTISKNEVLEIVMAIFKMITPEDVKLLPDDENTPEKRAEKIWKYFGKNDDDKLTEKEFIEGTLANKEILRLIQFEPQKVKEKMKNA	29.3 ± 1.7	70.7 ± 1.7	29.3 ± 1.1	40.1 ± 1.8	11.4 ± 0.2	19.1 ± 0.5	26.9 ± 0.9	73.1 ± 0.9
human recoverin mutant E169A (natural protein, UniProt P35243 1-200, looked up, myristoylated (fraction of non-myristoylated forms did not exceed 16%), recoverin, human, UniProt P35243, C-terminal 'black' cluster mutant; Parent construct as m1; source: E. coli, expressed and purified similarly to the rWT protein (phenyl-Sepharose, Toyopearl SuperQ-650M)) MGNSKSGALSKEILEELQLNTKFSEEELCSWYQSFLKDCPTGRITQQQFQSIYAKFFPDTDPKAYAQHVFRSFDSNLDGTLDFKEYVIALHMTTAGKTNQKLEWAFSLYDVDGNGTISKNEVLEIVMAIFKMITPEDVKLLPDDENTPEKRAEKIWKYFGKNDDDKLTAKEFIEGTLANKEILRLIQFEPQKVKEKMKNA	38.9 ± 1.2	61.1 ± 1.2	27 ± 0.3	16.1 ± 1.5	27.2 ± 0.9	29.6 ± 0.3	33.7 ± 0.5	66.3 ± 0.5
human recoverin mutant F172A (natural protein, UniProt P35243 1-200, looked up, myristoylated (fraction of non-myristoylated forms did not exceed 16%), recoverin, human, UniProt P35243, C-terminal 'black' cluster mutant; Parent construct as m1; source: E. coli, expressed and purified similarly to the rWT protein (phenyl-Sepharose, Toyopearl SuperQ-650M)) MGNSKSGALSKEILEELQLNTKFSEEELCSWYQSFLKDCPTGRITQQQFQSIYAKFFPDTDPKAYAQHVFRSFDSNLDGTLDFKEYVIALHMTTAGKTNQKLEWAFSLYDVDGNGTISKNEVLEIVMAIFKMITPEDVKLLPDDENTPEKRAEKIWKYFGKNDDDKLTEKEAIEGTLANKEILRLIQFEPQKVKEKMKNA	33.6 ± 2	66.4 ± 2	29.3 ± 0.2	22 ± 0.9	20 ± 0.3	28.8 ± 0.8	36.6 ± 0.7	63.4 ± 0.7
human recoverin mutant Q46A (natural protein, UniProt P35243 1-200, looked up, myristoylated (fraction of non-myristoylated forms did not exceed 16%), recoverin, human, UniProt P35243, N-terminal 'gray' cluster mutant; Parent construct as m1; source: E. coli, expressed and purified similarly to the rWT protein (phenyl-Sepharose, Toyopearl SuperQ-650M)) MGNSKSGALSKEILEELQLNTKFSEEELCSWYQSFLKDCPTGRITAQQFQSIYAKFFPDTDPKAYAQHVFRSFDSNLDGTLDFKEYVIALHMTTAGKTNQKLEWAFSLYDVDGNGTISKNEVLEIVMAIFKMITPEDVKLLPDDENTPEKRAEKIWKYFGKNDDDKLTEKEFIEGTLANKEILRLIQFEPQKVKEKMKNA	35.1 ± 1.8	64.9 ± 1.8	27.3 ± 1.5	31.9 ± 1.9	18.4 ± 0.6	22.3 ± 1	30.2 ± 0.5	69.8 ± 0.5
human recoverin mutant F106A (natural protein, UniProt P35243 1-200, looked up, myristoylated (fraction of non-myristoylated forms did not exceed 16%), recoverin, human, UniProt P35243, C-terminal 'black' cluster mutant; Parent construct as m1; source: E. coli, expressed and purified similarly to the rWT protein (phenyl-Sepharose, Toyopearl SuperQ-650M)) MGNSKSGALSKEILEELQLNTKFSEEELCSWYQSFLKDCPTGRITQQQFQSIYAKFFPDTDPKAYAQHVFRSFDSNLDGTLDFKEYVIALHMTTAGKTNQKLEWAASLYDVDGNGTISKNEVLEIVMAIFKMITPEDVKLLPDDENTPEKRAEKIWKYFGKNDDDKLTEKEFIEGTLANKEILRLIQFEPQKVKEKMKNA	38 ± 0.3	62 ± 0.3	27.11 ± 0.08	17.9 ± 2.1	25 ± 0.8	30 ± 1.4	35.4 ± 1	64.6 ± 1
human recoverin mutant Y86A (natural protein, UniProt P35243 1-200, looked up, myristoylated (fraction of non-myristoylated forms did not exceed 16%), recoverin, human, UniProt P35243, N-terminal 'black' cluster mutant; Parent construct as m1; source: E. coli, expressed and purified similarly to the rWT protein (phenyl-Sepharose, Toyopearl SuperQ-650M)) MGNSKSGALSKEILEELQLNTKFSEEELCSWYQSFLKDCPTGRITQQQFQSIYAKFFPDTDPKAYAQHVFRSFDSNLDGTLDFKEAVIALHMTTAGKTNQKLEWAFSLYDVDGNGTISKNEVLEIVMAIFKMITPEDVKLLPDDENTPEKRAEKIWKYFGKNDDDKLTEKEFIEGTLANKEILRLIQFEPQKVKEKMKNA	30.7 ± 3	69.3 ± 3	28.5 ± 1.4	35.8 ± 2.7	14.2 ± 0.6	21.5 ± 0.7	33.9 ± 0.2	66.1 ± 0.2
human recoverin mutant K119A (natural protein, UniProt P35243 1-200, looked up, myristoylated (fraction of non-myristoylated forms did not exceed 16%), recoverin, human, UniProt P35243, C-terminal 'gray' cluster mutant; Parent construct as m1; source: E. coli, expressed and purified similarly to the rWT protein (phenyl-Sepharose, Toyopearl SuperQ-650M)) MGNSKSGALSKEILEELQLNTKFSEEELCSWYQSFLKDCPTGRITQQQFQSIYAKFFPDTDPKAYAQHVFRSFDSNLDGTLDFKEYVIALHMTTAGKTNQKLEWAFSLYDVDGNGTISANEVLEIVMAIFKMITPEDVKLLPDDENTPEKRAEKIWKYFGKNDDDKLTEKEFIEGTLANKEILRLIQFEPQKVKEKMKNA	36.7 ± 0.8	63.3 ± 0.8	24.4 ± 0.6	19.5 ± 0.4	31.38 ± 0.05	24.7 ± 0.2	46.4 ± 5	53.6 ± 5
human recoverin mutant V122A (natural protein, UniProt P35243 1-200, looked up, myristoylated (fraction of non-myristoylated forms did not exceed 16%), recoverin, human, UniProt P35243, C-terminal 'gray' cluster mutant; Parent construct as m1; source: E. coli, expressed and purified similarly to the rWT protein (phenyl-Sepharose, Toyopearl SuperQ-650M)) MGNSKSGALSKEILEELQLNTKFSEEELCSWYQSFLKDCPTGRITQQQFQSIYAKFFPDTDPKAYAQHVFRSFDSNLDGTLDFKEYVIALHMTTAGKTNQKLEWAFSLYDVDGNGTISKNEALEIVMAIFKMITPEDVKLLPDDENTPEKRAEKIWKYFGKNDDDKLTEKEFIEGTLANKEILRLIQFEPQKVKEKMKNA	27 ± 1.2	73 ± 1.2	27.1 ± 1.3	15.8 ± 0.2	26.7 ± 2.1	30.3 ± 0.6	35.3 ± 0.9	64.7 ± 0.9
human recoverin mutant F49A (natural protein, UniProt P35243 1-200, looked up, myristoylated (fraction of non-myristoylated forms did not exceed 16%), recoverin, human, UniProt P35243, N-terminal 'gray' cluster mutant; Parent construct as m1; source: E. coli, expressed and purified similarly to the rWT protein (phenyl-Sepharose, Toyopearl SuperQ-650M)) MGNSKSGALSKEILEELQLNTKFSEEELCSWYQSFLKDCPTGRITQQQAQSIYAKFFPDTDPKAYAQHVFRSFDSNLDGTLDFKEYVIALHMTTAGKTNQKLEWAFSLYDVDGNGTISKNEVLEIVMAIFKMITPEDVKLLPDDENTPEKRAEKIWKYFGKNDDDKLTEKEFIEGTLANKEILRLIQFEPQKVKEKMKNA	36.7 ± 1	63.3 ± 1	25.5 ± 0.5	30.6 ± 1.6	21.08 ± 0.09	22.8 ± 1.3	32.1 ± 0.5	67.9 ± 0.5
human recoverin mutant W156A (natural protein, UniProt P35243 1-200, looked up, myristoylated (fraction of non-myristoylated forms did not exceed 16%), recoverin, human, UniProt P35243, C-terminal 'gray' cluster mutant; Parent construct as m1; source: E. coli, expressed and purified similarly to the rWT protein (phenyl-Sepharose, Toyopearl SuperQ-650M)) MGNSKSGALSKEILEELQLNTKFSEEELCSWYQSFLKDCPTGRITQQQFQSIYAKFFPDTDPKAYAQHVFRSFDSNLDGTLDFKEYVIALHMTTAGKTNQKLEWAFSLYDVDGNGTISKNEVLEIVMAIFKMITPEDVKLLPDDENTPEKRAEKIAKYFGKNDDDKLTEKEFIEGTLANKEILRLIQFEPQKVKEKMKNA	35.4 ± 0.8	64.6 ± 0.8	25 ± 1.1	20.4 ± 0.7	29.8 ± 0.9	24.8 ± 1	36.8 ± 0.2	63.2 ± 0.2
human recoverin mutant F35A (natural protein, UniProt P35243 1-200, looked up, myristoylated (fraction of non-myristoylated forms did not exceed 16%), recoverin, human, UniProt P35243, N-terminal 'black' cluster mutant; Parent construct as m1; source: E. coli, expressed and purified similarly to the rWT protein (phenyl-Sepharose, Toyopearl SuperQ-650M)) MGNSKSGALSKEILEELQLNTKFSEEELCSWYQSALKDCPTGRITQQQFQSIYAKFFPDTDPKAYAQHVFRSFDSNLDGTLDFKEYVIALHMTTAGKTNQKLEWAFSLYDVDGNGTISKNEVLEIVMAIFKMITPEDVKLLPDDENTPEKRAEKIWKYFGKNDDDKLTEKEFIEGTLANKEILRLIQFEPQKVKEKMKNA	37.2 ± 0.5	62.8 ± 0.5	31.7 ± 0.3	37.4 ± 3.6	13.2 ± 3.3	17.78 ± 0.07	30.9 ± 1.9	69.1 ± 1.9
